Test results taken from paper PMC4882579, “Disclosing the essentiality of ribose-5-phosphate isomerase B in Trypanosomatids” (Scientific Reports, 2016).

Substrate: O=C(CO)[C@H](O)[C@H](O)COP(=O)(O)O
Test: purified protein, by the assay type
Set-up: Recombinant RPIB isomerase kinetics, R5P to Ru5P (direct) or Ru5P to R5P (reverse)
Excerpt: LiRPIB and LmRPIB recombinant proteins, containing a 6-histidine N-terminal tag, were expressed in Escherichia coli and purified by affinity chromatography under native conditions. Coomassie blue is represented in Fig. 1b, showing that both proteins have the predicted MW for the monomer (LiRPIB ~20.83, LmRPIB ~20.78 kDa). […] Additionally, recombinant LiRPIB was used to immunise rabbits to produce polyclonal anti-LiRPIB antibodies. Those antibodies recognise the recombinant protein and a single band in an extract of L. infantum promastigotes with the expected MW (~18.6 kDa, [web.expasy.org/protparam]) (Fig. 1c). […] The reverse reaction, which generates R5P, seems to be favoured, with both enzymes presenting lower Km values and higher vmax and kcat.

B1: LmRPIB (Leishmania major) (protein)
chain: MSKRVALGCDHAAYAAHREIMDMISASGAVSKVMYMGPSSDTSVDYPDYAAQVCEAILKGEADAGILVCGTGIGMSIAANKFRGIRAALCYDHVTAQLSRQHNNAHILCIGVRTSGMEIIRDIITTFLTTEPLAEGRHSNRVDKITVIEEEQMKDEQRCCFSGCGGRKEEGK
Km: 3010 ± 540 µM | Vmax: 1040 µM/min | kcat: 128 ± 7.33 s⁻¹

B2: LiRPIB (Leishmania infantum) (protein)
chain: MPKRVALGCDHAAYATHQEIMDMVNASGAASKVMYMGPSSDTSVDYPDYAAQVCEAILKGEADTGILVCGTGIGMSIAANKFRGIRAALCYDHVTAQLSRQHNNAHILCIGVRTSGMEVIRDIIETFLTTEPLAEGRHGNRVDKITVIEEEQMKDEQRWCFSGCGGLKEEGK
Km: 2820 ± 300 µM | Vmax: 930 µM/min | kcat: 115 ± 3.86 s⁻¹
